The target of data set [1] is SARS-CoV spike RBD (SARS-CoV, UniProt P59594 P59594:306-527).
Data set [2] has as its target SARS-CoV-2 spike RBD (SARS-CoV-2, UniProt P0DTC2 P0DTC2:319-541).
The target in data set [3] is SARS-CoV-2 nucleocapsid (N) protein (SARS-CoV-2, UniProt P0DTC9 P0DTC9:1-419).
For data set [4], the target named is SARS-CoV N protein (SARS-CoV, UniProt P59595 P59595:1-422).

B1: Aptamer-S (Aptamer 1C) (ssDNA)
DNA: CAGCACCGACCTTGTGCTTTGGGAGTGCTGGTCCAAGGGCGTTAATGGACA
Take B1: the binding result in data set [1] and in data set [2] was “binds” in each case.

B2: Aptamer-N (Aptamer Np-48) (ssDNA)
DNA: GCTGGATGTCGCTTACGACAATATTCCTTAGGGGCACCGCTACATTGACACATCCAGC
modifications: 3' amino linker, coupled to PBASE-graphene
As for B2, in data set [3], the binding result is “binds”.

B3: Aptamer-N (Aptamer Np-48) (ssDNA)
DNA: GCTGGATGTCGCTTACGACAATATTCCTTAGGGGCACCGCTACATTGACACATCCAGC
As for B3, in data set [4], the binding result is “binds”.

(Values after US20220252584, “METHODS AND DEVICES FOR […] A PATHOGEN AND ITS MOLECULAR COMPONENTS” (THE REGENTS OF THE UNIVERSITY OF CALIFORNIA, published 2022).)
